Results on 167 variants are retold here after the RNAGym collection of RNA variant scans (doi:10.7554/elife.90254).

First the molecules themselves.
B1: LINE1-full (parent)
chain: UACGUAGGUGGUUUUCCCCUGAUAGUGCUAAGGGGGCCUGGAAGUUUGGACUGGGCAGAGCUCAACACAGCGUGGCAAAGUGGCUGUGGCUAGACUGCCUCUCUGGAUUCCUCGUCACUCAGCAGGGCAUCUCUGAGAGAAAUGCC

In the series the parent is B1. Kind of series: self-cleavage, relative activity (ratio to wild type); higher = more cleavage; in vitro, sequencing; the parent is a self-cleaving ribozyme.
Turning to A2G G21C, the self-cleavage amounted to 1.04.

In the case of C3A A69G, the self-cleavage came to 0.31.

Take A2U A43G: the self-cleavage came to 1.07.

As to A2G A129G, the self-cleavage came out at 0.46.

For U1A U87A, the self-cleavage amounted to 0.13.

In the case of A2G A69U, the self-cleavage came out at 0.15.

For A2G A69G, the self-cleavage was determined as 0.32.

Consider A2U A64U, for which the self-cleavage is 0.37.

As to A2G U102C, the self-cleavage was 1.2.

Regarding A2U U115A, the self-cleavage amounted to 0.77.

With A2C U39A, the self-cleavage was determined as 1.3.

As to C3A U96C, the self-cleavage came out at 0.2.

Turning to U1A U9A, the self-cleavage came to 1.15.

In the case of U1A G34C, the self-cleavage amounted to 1.08.

Take U1A C37G: the self-cleavage is 0.74.

In the case of C3A A129G, the self-cleavage came to 0.88.

As for U1C A42G, the self-cleavage stood at 0.92.

With C3U A77U, the self-cleavage worked out at 0.

As for C3U A77G, the self-cleavage is 0.71.

For U1C G34U, the self-cleavage turned out to be 0.68.

For U1A U119C, the self-cleavage was determined as 1.73.

Regarding C3U U73A, the self-cleavage worked out at 0.91.

On to C3U U73C, for which the self-cleavage is 1.49.

In the case of C3U C131U, the self-cleavage amounted to 1.02.

Take C3A U12G: the self-cleavage was determined as 0.81.

As for A2G A92G, the self-cleavage amounted to 0.

In the case of A2G A92C, the self-cleavage is 0.13.

For U1C G36A, the self-cleavage came to 1.06.

Turning to C3U A124U, the self-cleavage came out at 1.

Regarding U1C U23A, the self-cleavage was found to be 0.56.

As to U1C U23C, the self-cleavage was 0.98.

In the case of A2G U109C, the self-cleavage stood at 1.39.

For A2G U134A, the self-cleavage came to 1.38.

As to C3A A94G, the self-cleavage was found to be 0.3.

With U1C U45C, the self-cleavage came to 0.91.

Turning to U1C U45G, the self-cleavage was 0.48.

Turning to C3G A141G, the self-cleavage came out at 0.66.

With A2G C17A, the self-cleavage was determined as 1.56.

Turning to C3U A24U, the self-cleavage is 1.15.

A2G U87A: the self-cleavage came to 0.32.

Regarding U1A A136G, the self-cleavage came out at 1.71.

On to A2G G54A, for which the self-cleavage was determined as 0.27.

For the variant U1G U13G, the self-cleavage was 1.14.

A2G U39A: the self-cleavage was found to be 0.89.

With U1A G72A, the self-cleavage is 1.55.

A2G C84A: the self-cleavage was 0.26.

Regarding A2C A57U, the self-cleavage worked out at 0.11.

For A2G U119A, the self-cleavage was found to be 0.96.

A2G U119C: the self-cleavage is 1.32.

For the variant U1C A141U, the self-cleavage worked out at 0.71.

As to U1C A141G, the self-cleavage turned out to be 0.97.

For U1C U143A, the self-cleavage amounted to 1.35.

For C3U G72A, the self-cleavage was 0.05.

In the case of C3U G82U, the self-cleavage was 0.88.

On to A2G A141G, for which the self-cleavage is 0.78.

With A2U A142C, the self-cleavage was 1.09.

As for C3G A69U, the self-cleavage stood at 0.11.

Consider A2G A94C, for which the self-cleavage turned out to be 0.29.

On to A2G U81C, for which the self-cleavage was 1.14.

With A2U A129U, the self-cleavage amounted to 0.75.

On to C3U A64G, for which the self-cleavage is 0.21.

As to U1C U12A, the self-cleavage worked out at 0.95.

As to U1G U46G, the self-cleavage was found to be 0.33.

Regarding U1A U14C, the self-cleavage worked out at 1.71.

Consider U1A U14A, for which the self-cleavage is 0.89.

For the variant C3A U109C, the self-cleavage is 0.53.

With U1C U20C, the self-cleavage turned out to be 0.79.

For U1A U112A, the self-cleavage came out at 1.2.

A2G U132G: the self-cleavage worked out at 1.6.

Consider A2G G53A, for which the self-cleavage was found to be 0.74.

With A2G C19U, the self-cleavage amounted to 0.56.

Turning to U1A U62G, the self-cleavage turned out to be 0.36.

As for U1G G114C, the self-cleavage worked out at 0.52.

For A2U U23C, the self-cleavage came to 0.

On to A2U A141G, for which the self-cleavage is 1.

Take C3U A50G: the self-cleavage came to 0.33.

As for A2C A107G, the self-cleavage came to 1.15.

In the case of U1C G7U, the self-cleavage worked out at 0.75.

Consider C3A U115C, for which the self-cleavage stood at 1.22.

For A2U U104A, the self-cleavage turned out to be 0.26.

For the variant U1C C68U, the self-cleavage came out at 0.13.

Regarding C3A U13C, the self-cleavage worked out at 1.15.

With A2C C17G, the self-cleavage turned out to be 1.03.

Consider U1A U26G, for which the self-cleavage stood at 1.19.

In the case of A2G U104A, the self-cleavage was 0.95.

Consider A2G A78G, for which the self-cleavage was 1.04.

Turning to C3A A65G, the self-cleavage worked out at 0.29.

On to C3U A117U, for which the self-cleavage came out at 1.31.

Take C3U A117G: the self-cleavage was determined as 0.45.

Consider C3U A117C, for which the self-cleavage was 0.75.

A2G A24G: the self-cleavage was 0.71.

Regarding U1C C51U, the self-cleavage came to 0.71.

On to C3U A67G, for which the self-cleavage was 0.

On to U1C U132C, for which the self-cleavage stood at 0.97.

With U1C U115A, the self-cleavage stood at 0.98.

In the case of C3A U85A, the self-cleavage was 0.13.

Regarding C3A C98A, the self-cleavage worked out at 0.28.

Take A2U A79G: the self-cleavage stood at 1.45.

On to C3U A31U, for which the self-cleavage was 0.37.

Turning to U1A U20C, the self-cleavage came out at 1.64.

In the case of A2U U15G, the self-cleavage came out at 0.51.

With U1C U87A, the self-cleavage amounted to 0.23.

With A2G A42G, the self-cleavage was 0.72.

For the variant A2G A42U, the self-cleavage came to 0.69.

As for C3U U15C, the self-cleavage came out at 0.45.

As to A2G C76U, the self-cleavage came out at 1.17.

Regarding C3A U9C, the self-cleavage is 1.11.

Consider A2G U15G, for which the self-cleavage turned out to be 0.99.

Regarding A2U U12A, the self-cleavage came out at 0.31.

Turning to U1A C3U, the self-cleavage is 0.

For the variant A2U U73C, the self-cleavage amounted to 0.56.

Turning to A2U U73A, the self-cleavage stood at 0.45.

In the case of U1C U81A, the self-cleavage amounted to 1.64.

Turning to U1A A78C, the self-cleavage was found to be 1.65.

With U1A A78G, the self-cleavage was found to be 0.86.

On to C3G U81C, for which the self-cleavage amounted to 0.75.

For the variant U1G A78G, the self-cleavage was 1.25.

As for U1C U130C, the self-cleavage is 1.04.

Consider C3U U20G, for which the self-cleavage was 0.53.

Turning to C3U U20A, the self-cleavage amounted to 0.83.

A2G U45A: the self-cleavage was 0.63.

For the variant U1C C146U, the self-cleavage is 1.08.

As to A2G A77G, the self-cleavage was determined as 1.36.

Regarding A2U U130C, the self-cleavage came out at 0.32.

For the variant U1A A142G, the self-cleavage was 1.19.

As for C3U U9A, the self-cleavage is 0.84.

Take U1A G33U: the self-cleavage worked out at 0.96.

As for A2U U85G, the self-cleavage was found to be 0.14.

Turning to U1A A30C, the self-cleavage was 1.44.

Consider A2U A67G, for which the self-cleavage worked out at 0.61.

In the case of U1A U29C, the self-cleavage came out at 0.84.

A2G U12G: the self-cleavage stood at 0.95.

With U1C G48A, the self-cleavage stood at 0.9.

For U1G U100C, the self-cleavage stood at 1.1.

With A2G U115C, the self-cleavage worked out at 1.43.

Consider U1A A77G, for which the self-cleavage was 1.66.

As to C3U U45A, the self-cleavage is 0.93.

As for C3U U45C, the self-cleavage was determined as 0.8.

Take U1C G83U: the self-cleavage came out at 0.25.

For A2G U130C, the self-cleavage was found to be 0.56.

C3A A124U: the self-cleavage amounted to 0.6.

As to A2G U26G, the self-cleavage was found to be 0.21.

With U1C U102C, the self-cleavage was determined as 1.03.

For U1C G8A, the self-cleavage turned out to be 0.49.

As for A2U U143A, the self-cleavage was 1.

U1C U73G: the self-cleavage was 1.53.

On to U1C U73C, for which the self-cleavage came to 1.04.

As for U1A A124G, the self-cleavage was 1.16.

Take A2G G93A: the self-cleavage is 0.1.

Turning to U1C G106A, the self-cleavage is 0.73.

Regarding A2G C71U, the self-cleavage was found to be 0.7.

As for A2G A30U, the self-cleavage turned out to be 0.85.

Turning to U1C A64G, the self-cleavage stood at 0.2.

Take U1C A64U: the self-cleavage was determined as 0.29.

For the variant C3U A57U, the self-cleavage was 0.17.

A2C A121G: the self-cleavage is 0.95.

Turning to A2G G137A, the self-cleavage turned out to be 0.61.

Turning to U1C A117U, the self-cleavage came out at 0.89.

Take U1C A117G: the self-cleavage worked out at 0.73.

On to A2G A59G, for which the self-cleavage was 0.39.

For the variant A2G U85A, the self-cleavage stood at 0.25.

As to A2G G36A, the self-cleavage stood at 0.7.

As for C3U U12C, the self-cleavage was 0.57.

As for C3U U12G, the self-cleavage turned out to be 1.13.

For U1C U134C, the self-cleavage is 0.38.

Turning to A2G C118G, the self-cleavage worked out at 1.04.

Turning to U1A G54A, the self-cleavage was found to be 1.05.
